# T1: human A33 antigen, full length, on cells (human, UniProt Q99795 22-319)
# T1 construct: CHO cells transfected with full length A33 cDNA (A33-CHO), or endogenous antigen of LS174T (colon) and AsPC-1 (pancreatic) tumour cells; The cell line is named under assay; also called A33-CHO; A33 antigen on LS174T cells
# T1 sequence: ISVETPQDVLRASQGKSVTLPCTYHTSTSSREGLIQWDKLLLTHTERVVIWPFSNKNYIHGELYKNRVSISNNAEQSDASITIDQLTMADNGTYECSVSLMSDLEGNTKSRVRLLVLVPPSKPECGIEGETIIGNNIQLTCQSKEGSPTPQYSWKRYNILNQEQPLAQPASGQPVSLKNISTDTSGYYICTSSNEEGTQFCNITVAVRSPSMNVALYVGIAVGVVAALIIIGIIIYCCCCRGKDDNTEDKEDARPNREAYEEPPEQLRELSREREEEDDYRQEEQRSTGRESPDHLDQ
# T2: human recombinant A33 antigen (human, UniProt Q99795 22-235)
# T2 construct: also called rH-GPA33; rHGPA33
# T2 sequence: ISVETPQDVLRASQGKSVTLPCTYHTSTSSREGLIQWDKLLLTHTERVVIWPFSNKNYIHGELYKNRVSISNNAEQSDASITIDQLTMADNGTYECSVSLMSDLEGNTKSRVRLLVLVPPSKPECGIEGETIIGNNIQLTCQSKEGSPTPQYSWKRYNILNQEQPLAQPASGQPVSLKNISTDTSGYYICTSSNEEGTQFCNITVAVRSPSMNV
# B1: humanized 31.1 antibody #1 (cdr-HC + cdr-LC) (antibody, human IgG1, kappa, V domains shown)
# VH: QIQLVQSGAEVKKPGASVKVSCKASGYTFTNYGMNWVKQAPGKGLKWMGWINTYTGEPTYADDFKGRFAFTLDTSISTAYMELSRLRSDDTAVYFCARAYYGKYFDYWGQGTTVTVSS
# VL: SIVMTQSPSSLSASVGDRVTITCKASQSVSNDVAWYQQKPGQSPKLLIYYASNRYTGVPDRFSGSGYGTDFTLTISSLQPEDFAVYFCQQDYSSPLTFGAGTKLEIKR
# notes: Full heavy (448 aa) and light (214 aa) chains; transient Expi293 expression, tested as culture supernatant; also called Sample ID 1; cdr31.1-HC + cdr31.1-LC
# B2: humanized 31.1 antibody #16 (ven31.1-HC + ven31.1-LC) (antibody, human IgG1, kappa, V domains shown)
# VH: QIQLVQSGPEVKKPGASVKISCKASGYTFTNYGMNWVKQAPGQGLKWMGWINTYTGEPTYADDFKGRFAFTLDTSISTAYLEISRLRSDDTAVYFCARAYYGKYFDYWGQGTTLTVSS
# VL: SIVMTQSPSSLSVSVGDRVTITCKASQSVSNDVAWYQQKPGQSPKLLIYYASNRYTGVPDRFSGSGYGTDFTFTISSVQPEDLAVYFCQQDYSSPLTFGAGTKLELKR
# notes: Full heavy and light chains; supernatant in the first screen, Protein A/G purified in the third round; also called Sample ID 16; ven-HC + ven-LC
# B3: humanized 31.1 antibody #15 (ven-HC + sdr-LC) (antibody, human IgG1, kappa, V domains shown)
# VH: QIQLVQSGPEVKKPGASVKISCKASGYTFTNYGMNWVKQAPGQGLKWMGWINTYTGEPTYADDFKGRFAFTLDTSISTAYLEISRLRSDDTAVYFCARAYYGKYFDYWGQGTTLTVSS
# VL: SIQMTQSPSSLSASVGDRVTITCRASQSISNDLAWYQQKPGQSPKLLIYYASNRYTGVPDRFSGSGYGTDFTLTISSLQPEDFAVYFCQQDYSSPLTFGAGTKLEIKR
# notes: Full heavy and light chains; transient Expi293 expression, tested as culture supernatant; also called Sample ID 15; ven31.1-HC + sdr31.1-LC
# B4: humanized 31.1 antibody #13 (ven-HC + cdr-LC) (antibody, human IgG1, kappa, V domains shown)
# VH: QIQLVQSGPEVKKPGASVKISCKASGYTFTNYGMNWVKQAPGQGLKWMGWINTYTGEPTYADDFKGRFAFTLDTSISTAYLEISRLRSDDTAVYFCARAYYGKYFDYWGQGTTLTVSS
# VL: SIVMTQSPSSLSASVGDRVTITCKASQSVSNDVAWYQQKPGQSPKLLIYYASNRYTGVPDRFSGSGYGTDFTLTISSLQPEDFAVYFCQQDYSSPLTFGAGTKLEIKR
# notes: Full heavy and light chains; transient Expi293 expression, tested as culture supernatant; also called Sample ID 13; ven31.1-HC + cdr31.1-LC
# B5: humanized 31.1 antibody #14 (ven-HC + abb-LC) (antibody, human IgG1, kappa, V domains shown)
# VH: QIQLVQSGPEVKKPGASVKISCKASGYTFTNYGMNWVKQAPGQGLKWMGWINTYTGEPTYADDFKGRFAFTLDTSISTAYLEISRLRSDDTAVYFCARAYYGKYFDYWGQGTTLTVSS
# VL: SIQMTQSPSSLSASVGDRVTITCRASQSVSNDVAWYQQKPGQSPKLLIYYASNRYSGVPDRFSGSGYGTDFTLTISSLQPEDFAVYFCQQDYSSPLTFGAGTKLEIKR
# notes: Full heavy and light chains; transient Expi293 expression, tested as culture supernatant; also called Sample ID 14; ven31.1-HC + abb31.1-LC
# B6: humanized 31.1 antibody #3 (cdr-HC + sdr-LC) (antibody, human IgG1, kappa, V domains shown)
# VH: QIQLVQSGAEVKKPGASVKVSCKASGYTFTNYGMNWVKQAPGKGLKWMGWINTYTGEPTYADDFKGRFAFTLDTSISTAYMELSRLRSDDTAVYFCARAYYGKYFDYWGQGTTVTVSS
# VL: SIQMTQSPSSLSASVGDRVTITCRASQSISNDLAWYQQKPGQSPKLLIYYASNRYTGVPDRFSGSGYGTDFTLTISSLQPEDFAVYFCQQDYSSPLTFGAGTKLEIKR
# notes: Full heavy and light chains; transient Expi293 expression, tested as culture supernatant; also called Sample ID 3; cdr31.1-HC + sdr31.1-LC
# B7: humanized 31.1 antibody #9 (sdr-HC + cdr-LC) (antibody, human IgG1, kappa, V domains shown)
# VH: QIQLVQSGAEVKKPGASVKVSCKASGYTFTNYGMNWVRQAPGKGLEWMGWINPYTGEPTYAQKFQGRVTFTLDTSISTAYMELSRLRSDDTAVYFCARAYYGKYFDYWGQGTTVTVSS
# VL: SIVMTQSPSSLSASVGDRVTITCKASQSVSNDVAWYQQKPGQSPKLLIYYASNRYTGVPDRFSGSGYGTDFTLTISSLQPEDFAVYFCQQDYSSPLTFGAGTKLEIKR
# notes: Full heavy and light chains; transient Expi293 expression, tested as culture supernatant; also called Sample ID 9; sdr31.1-HC + cdr31.1-LC
# B8: humanized 31.1 antibody #7 (abb-HC + sdr-LC) (antibody, human IgG1, kappa, V domains shown)
# VH: QIQLVQSGAEVKKPGASVKVSCKASGYTFTNYGMNWVRQAPGKGLEWMGWINTYTGEPTYAQKFQGRVTFTLDTSISTAYMELSRLRSDDTAVYFCARAYYGKYFDYWGQGTTVTVSS
# VL: SIQMTQSPSSLSASVGDRVTITCRASQSISNDLAWYQQKPGQSPKLLIYYASNRYTGVPDRFSGSGYGTDFTLTISSLQPEDFAVYFCQQDYSSPLTFGAGTKLEIKR
# notes: Full heavy and light chains; transient Expi293 expression, tested as culture supernatant; also called Sample ID 7; abb31.1-HC + sdr31.1-LC
# B9: humanized 31.1 antibody #4 (cdr-HC + ven-LC) (antibody, human IgG1, kappa, V domains shown)
# VH: QIQLVQSGAEVKKPGASVKVSCKASGYTFTNYGMNWVKQAPGKGLKWMGWINTYTGEPTYADDFKGRFAFTLDTSISTAYMELSRLRSDDTAVYFCARAYYGKYFDYWGQGTTVTVSS
# VL: SIVMTQSPSSLSVSVGDRVTITCKASQSVSNDVAWYQQKPGQSPKLLIYYASNRYTGVPDRFSGSGYGTDFTFTISSVQPEDLAVYFCQQDYSSPLTFGAGTKLELKR
# notes: Full heavy and light chains; transient Expi293 expression, tested as culture supernatant; also called Sample ID 4; cdr31.1-HC + ven31.1-LC
# B10: humanized 31.1 antibody #8 (abb-HC + ven-LC) (antibody, human IgG1, kappa, V domains shown)
# VH: QIQLVQSGAEVKKPGASVKVSCKASGYTFTNYGMNWVRQAPGKGLEWMGWINTYTGEPTYAQKFQGRVTFTLDTSISTAYMELSRLRSDDTAVYFCARAYYGKYFDYWGQGTTVTVSS
# VL: SIVMTQSPSSLSVSVGDRVTITCKASQSVSNDVAWYQQKPGQSPKLLIYYASNRYTGVPDRFSGSGYGTDFTFTISSVQPEDLAVYFCQQDYSSPLTFGAGTKLELKR
# notes: Full heavy and light chains; transient Expi293 expression, tested as culture supernatant; also called Sample ID 8; abb31.1-HC + ven31.1-LC
# B11: humanized 31.1 antibody #10 (sdr-HC + abb-LC) (antibody, human IgG1, kappa, V domains shown)
# VH: QIQLVQSGAEVKKPGASVKVSCKASGYTFTNYGMNWVRQAPGKGLEWMGWINPYTGEPTYAQKFQGRVTFTLDTSISTAYMELSRLRSDDTAVYFCARAYYGKYFDYWGQGTTVTVSS
# VL: SIQMTQSPSSLSASVGDRVTITCRASQSVSNDVAWYQQKPGQSPKLLIYYASNRYSGVPDRFSGSGYGTDFTLTISSLQPEDFAVYFCQQDYSSPLTFGAGTKLEIKR
# notes: Full heavy and light chains; transient Expi293 expression, tested as culture supernatant; also called Sample ID 10; sdr31.1-HC + abb31.1-LC
# B12: humanized 31.1 antibody #2 (cdr-HC + abb-LC) (antibody, human IgG1, kappa, V domains shown)
# VH: QIQLVQSGAEVKKPGASVKVSCKASGYTFTNYGMNWVKQAPGKGLKWMGWINTYTGEPTYADDFKGRFAFTLDTSISTAYMELSRLRSDDTAVYFCARAYYGKYFDYWGQGTTVTVSS
# VL: SIQMTQSPSSLSASVGDRVTITCRASQSVSNDVAWYQQKPGQSPKLLIYYASNRYSGVPDRFSGSGYGTDFTLTISSLQPEDFAVYFCQQDYSSPLTFGAGTKLEIKR
# notes: Full heavy and light chains; transient Expi293 expression, tested as culture supernatant; also called Sample ID 2; cdr31.1-HC + abb31.1-LC
# B13: humanized 31.1 antibody #12 (sdr-HC + ven-LC) (antibody, human IgG1, kappa, V domains shown)
# VH: QIQLVQSGAEVKKPGASVKVSCKASGYTFTNYGMNWVRQAPGKGLEWMGWINPYTGEPTYAQKFQGRVTFTLDTSISTAYMELSRLRSDDTAVYFCARAYYGKYFDYWGQGTTVTVSS
# VL: SIVMTQSPSSLSVSVGDRVTITCKASQSVSNDVAWYQQKPGQSPKLLIYYASNRYTGVPDRFSGSGYGTDFTFTISSVQPEDLAVYFCQQDYSSPLTFGAGTKLELKR
# notes: Full heavy and light chains; transient Expi293 expression, tested as culture supernatant; also called Sample ID 12; sdr31.1-HC + ven31.1-LC
# What was measured:
# [1] = biological target: T1, human A33 antigen, full length, on cells; experiment: IHC on LS174T FFPE sections, 20ug/mL
# Procedure: (§1) Human IgG ELISA, rH-GPA33 Binding ELISA, cell Flow Cytometry (LS174T or AsPAC1), IHC staining (LS174T FFPE, tumor FFPE and Frozen tumor sections) and Coomassie blue staining of SDS-PAGE gel were used for the screening. Antibody in the culture supernatant was purified by Protein A/G purification in the column and dissolved in PBS buffer after three times dialysis. Aliquots of the antibodies were kept at -20° C. for storage.
# (§2) Each combination was produced by transient transfection by using Expi293 Expression System Kit (Gibco, cat# A14635). […] Methods of Human IgG ELISA, rH-GPA33 Binding ELISA, LS174T cell Flow Cytometry, IHC staining on LS174T FFPE sections and Coomassie blue staining of SDS-PAGE gel were used for the initial screening.
# [2] = biological target: T2, human recombinant A33 antigen; experiment: rH-GPA33 binding ELISA, 2ug/mL of 31.1, supernatant
# Procedure: as §1, §2
# [3] = biological target: T1, human A33 antigen, full length, on cells; experiment: flow cytometry on LS174T cells, 0.37ug/mL
# Procedure: as §1, §2
# [4] = biological target: T1, human A33 antigen, full length, on cells; experiment: IHC on LS174T FFPE sections, 20ug/mL, repeat result
# [5] = biological target: T1, human A33 antigen, full length, on cells; experiment: IHC on LS174T FFPE sections, 20ug/mL, first result
Binder,H-Score of IHC [1],OD Value of rH-GPA33 Binding ELISA [2],MFI [3],H-Score of IHC [4],H-Score of IHC [5]
B1,0 H-Score,0.8 OD,878 MFI,–,–
B2,–,1.74 OD,966 MFI,0 H-Score,0 H-Score
B3,90 H-Score,0.46 OD,689 MFI,–,–
B4,20 H-Score,1.27 OD,1150 MFI,–,–
B5,–,1.44 OD,1060 MFI,30 H-Score,125 H-Score
B6,0 H-Score,0.29 OD,520 MFI,–,–
B7,150 H-Score,0.07 OD,6.65 MFI,–,–
B8,120 H-Score,0.2 OD,481 MFI,–,–
B9,0 H-Score,1.27 OD,726 MFI,–,–
B10,125 H-Score,1.2 OD,934 MFI,–,–
B11,–,0.07 OD,6.2 MFI,115 H-Score,240 H-Score
B12,0 H-Score,0.86 OD,821 MFI,–,–
B13,30 H-Score,0.06 OD,10.6 MFI,–,–

# Source: patent publication US20230295298A1 (PRECISION BIOLOGICS, published 2023)
